To fix the notation:
B1: Azoarcus group I ribozyme (parent)
chain: GUGCCUUGCGCCGGGAAACCACGCAAGGGAUGGUGUCAAAUUCGGCGAAACCUAAGCGCCCGCCCGGGCGUAUGGCAACGCCGAGCCAAGCUUCGGCGCCUGCGCCGAUGAAGGUGUAGAGACUAGACGGCACCCACCUAAGGCAAACGCUAUGGUGAAGGCAUAGUCCAGGGAGUGGCGAAAGUCACACAAACCGG

This data set covers variants of B1. Put plainly: reverse-splicing fitness (ratio to wild type); higher = more active; in vitro selection; Mg2+ level not given. In short, it runs like this:
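An in vitro group I ribozyme library with randomized positions was T7-transcribed and gel-purified. In triplicate, 10 pmol RNA in EPPS pH 7.5 was reacted with 50 pmoles of a 30-nt RNA substrate for 1 h at 37 °C across several added MgCl2 levels (1–48 mM), then stopped with EDTA. Products were reverse transcribed from a substrate-complementary primer, PCR-amplified and sequenced (HiSeq 4000). Fitness is a variant's read proportion after selection over that before, normalised to wild type.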
Turning to C82U A111U A145C C150G C169A U176G, the reverse-splicing fitness is 0.006. Take C82U A120C A145U C150G C169U U176G: the reverse-splicing fitness turned out to be 0.00467. On to C82G A111C A120U A145C C150A U176A, for which the reverse-splicing fitness is 0.00374. As for C82A A111U A120U A145G U176A, the reverse-splicing fitness stood at 0.00766. The same measure for A111U C169G U176C: 0.0333.

C82U A111G A145U C150A C169G: the reverse-splicing fitness is 0.00745. As to C82U A111C A120G A145U C150G U176C, the reverse-splicing fitness amounted to 0.0141. The result for C82U A111U A145U U176A reads 0.112; that for C82A A111U A120C A145G C169G, 0.0103. The same measure for C82G A111C A120C A145U C150G C169A: 0.00941; for C82A A120G A145U C150U C169U U176C: 0.0174; for C82A A145C C150U C169A U176G: 0.00598.

As for C82G A111U A120U A145C C150G C169U, the reverse-splicing fitness is 0.00336. C82G A111U A145U C150G C169G U176G: the reverse-splicing fitness turned out to be 0.00649. The same measure for A111U A120C: 0.587; for C82G A111G A120U A145U C150G C169A U176C: 0.00298.

Take C82A A111G A145G C150A C169U U176A: the reverse-splicing fitness was found to be 0.0159. The result for C82G A111C A120G A145G C150U C169A reads 0.0112; that for C82U A120G A145G C150G C169G U176A, 0.0089. The same measure for A111U A120U A145G C150A C169A U176A: 0.0049. The result for C82U A111G A120G A145C C150G C169U U176A reads 0.0136. For the variant C82U A111U A120C A145G C150A U176A, the reverse-splicing fitness was determined as 0.0105. The same measure for C82G A111C A120U A145C C150A: 0.00458; for A111U A120U A145C C150A C169A U176A: 0.00272; for C82U A111U A120G A145C C150G C169U U176A: 0.0142. The same measure for C82U A111U A120G C150A C169U U176G: 0.00726; for A120G A145C C150A U176C: 0.0279; for C82A A111U A120G C150G C169G: 0.00782. The same measure for C82A A120U A145G C150A C169G U176G: 0.00227; for A111C A120G A145C C150A C169A U176G: 0.0054.

C82G A120G A145C C150U C169A U176G: the reverse-splicing fitness worked out at 0.00471. The result for C82A A111G A120U A145C C150G U176A reads 0.00295; that for A120G C150G C169G, 0.0731; that for C82A A111C A120U A145C C150G C169G U176C, 0.00325.

Consider A111C A145G U176G, for which the reverse-splicing fitness is 0.185. The result for C82A A111C A120G A145U C169G U176C reads 0.012. For C82G A111G A120G A145U C169U U176A, the reverse-splicing fitness turned out to be 0.0191. The same measure for A111C A120G A145G C150G C169U: 0.0264; for C82G A111U A120U A145C C150G C169G U176A: 0.00357. The result for C82G A111U A120G C150U U176C reads 0.0178.

In the case of C82U A120C C150G, the reverse-splicing fitness was 0.0174. The same measure for A111U A120G C150A U176G: 0.00685; for C82G A120G A145G C150A U176A: 0.011; for C82A A120C A145U C169G U176C: 0.0191. The same measure for C82G A111C A120U A145G C150U C169G U176G: 0.00259; for C82U A111G A120U A145G C150G C169G: 0.00671; for C82U A120U A145G C150G C169U U176C: 0.00545. In the case of C82G A120U A145G C169A, the reverse-splicing fitness worked out at 0.00321. The same measure for C82A A111G A120U A145U C150A C169G U176A: 0.00301; for C82U A111G A120C A145C C150U U176A: 0.0105; for A111U A120C A145C C150A C169A U176C: 0.00583. The result for C82U A111U C150A C169A reads 0.00982; that for A120C, 0.9.

For C82U A111G A120C A145U C150A C169G U176G, the reverse-splicing fitness was found to be 0.00457. The result for A111C A120U A145C C150U U176C reads 0.0487; that for C82G A111U A120G A145C C169G U176C, 0.0172; that for C82U A111C A120U A145G C150G C169U U176A, 0.0084. The result for C82U A111G A120U C150U U176C reads 0.0105; that for A120C C169U, 0.435. Consider C82U A111G A120G A145C C169A U176A, for which the reverse-splicing fitness turned out to be 0.011.

Turning to C82U A111G A145U C150U C169G, the reverse-splicing fitness was found to be 0.00858. Consider A120G C150U U176A, for which the reverse-splicing fitness came out at 0.125. As to A111C A120C A145U C150A C169G U176G, the reverse-splicing fitness amounted to 0.00651. The same measure for C82G A120U C150A C169G U176C: 0.00368; for C82U A111C A120C A145G C150U: 0.0229. The result for A120C A145G C169A reads 0.0366; that for C82A A120U C150A C169A U176C, 0.00234; that for A111U A120G A145U C169A U176G, 0.00427.

Consider C82A A111G A120C A145G C169U, for which the reverse-splicing fitness worked out at 0.013. The same measure for A111G A120U C150U U176C: 0.249; for C82U A111C A145U C150A C169U U176A: 0.0193; for A111U A120U A145U C150G C169G U176C: 0.00228. The result for C82G A111U A120U A145U C169U U176C reads 0.00275. The same measure for C82U A111G A120C A145G C150A C169A: 0.00928.

Turning to C82U A111U A120U A145U C150A C169U U176A, the reverse-splicing fitness was found to be 0.00233. The result for C82U A111C A120C A145U C150U C169G U176A reads 0.0126.

Turning to C82G A111C A120G A145G U176C, the reverse-splicing fitness was found to be 0.0204. The result for C82G A111U A120U C150G C169A U176C reads 0.00545; that for A111U A120G A145G C150U C169A U176G, 0.00525.

On to C82G A111U A120U C150A C169U U176G, for which the reverse-splicing fitness was 0.00236. The result for C82A A111U C169A U176A reads 0.0172; that for C82A A111G A120U A145G C150A C169A U176G, 0.00291. Regarding C82A A120G C150G U176A, the reverse-splicing fitness stood at 0.00568.

The values above are taken from the RNAGym collection of RNA variant scans (doi:10.1093/molbev/msab373).
